assay: soluble on expression in E. coli; label from the status in PepcDB or PDB records

Sequence | soluble on expression in E. coli
MSEKEIWDKVLEIAQERISNTSYQTFIKDTQLYSLKNDEAIILVSLPFNASWLNQRYSEIMQAIIYDVIGYEVKPHFISEDELASYNNVNTQEVQEPQVQHSSIDDKTWGKEQFNMHNTFDTFVIGPGNRFPHAASLAVAEAPAEAYNPLFIYGGVGLGKTHLMHAIGHHVLSNKPNAKVIYTSSEKFTNEFIKSIRDNETEAFREKYRKIDVLLIDDIQFIQNKEQTQEEFFHTFNELHQNNKQIVISSDRPPKEIAKLEDRLRSRFEWGLIVDITPPDYETRMAILQKKIEEENLDIPPEALNYIANQIQSNIRELEGALTRLLAYSKLQGKPITTELTAEALKDIIQSPKSKKITIQDIQKVVGQYYSVRIEDFSAKKRTKSIAYPRQIAMYLSRELTDFSLPKIGEEFGGRDHTTVIHAHEKIANDIKSDPTFKQEVENLEKEIRNQLEHHHHHH | not soluble
MSEKTFLVEIGTEELPPKALRSLAESFAANFTAELDNAGLAHGTVQWFAAPRRLALKVANLAEAQPDREIEKRGPAIAQAFDAEGKPSKAAEGWARGCGITVDQAERLTTDKGEWLLYRAHVKGESTEALLPNMVATSLAKLPIPKLMRWGASDVHFVRPVHTVTLLLGDKVIPATILGIQSDRVIRGHRFMGEPEFTIDNADQYPEILRERGKVIADYEERKAKIKADAEEAARKIGGNADLSESLLEEVASLVEWPVVLTAKFEEKFLAVPAEALVYTMKGDQKYFPVYANDGKLLPNFIFVANIESKDPQQIISGNEKVVRPRLADAEFFFNTDRKKRLEDNLPRLQTVLFQQQLGTLRDKTDRIQALAGWIAEQIGADVNHATRAGLLSKCDLMTNMVFEFTDTQGVMGMHYARHDGEAEDVAVALNEQYQPRFAGDDLPSNPVACALAIADKMDTLAGIFGIGQHPKGDKDPFALRRAALGVLRIIVEKNLNLDLQTLTEEAVRLYGDKLTNANVVDDVIDFMLGRFRAWYQDEGYTVDTIQAVLARRPTRPADFDARMKAVSHFRTLDAAAALAAANKRVSNILAKSDEVLSDRVNASTLKEPEEIKLAMQVVVLRDKLEPYFTEGRYQDALVELAELREPVDAFFDKVMVMVDDKELRINRLTMLEKLRELFLRVADISLLQ | soluble
MSELHFMSLEELDNELEKDDSGIYFIKDYNDNIIYIGKAFSIKSRVLAHFNSYSNIKEYVHLFNKVAYLIEDSLLKRSLLQVTYMIKYKPVLNKEVQKEFPELYTQYIKQTNKKSMLLEIEEAKEKRDELKNRLVKLVGGKTMFYDIISLLNNGYNYHVLAKVLSIELQTLIIMKEHRNKFPMPHNYKRTIKHQDIMYALSGKKNLSTSRLNT | soluble
MSEPVKLRAHTQAHCKDCSLAPLCLPLSLNTDDMDSLDQIVKRGRPLKKGEFLFRQGDTFESVYAVRSGALKTFNISDNGEEQLTGFHLPSELVGLSGMDAEAYPVSAQALETTSVCEIPFERLDELSVQLPQLRRQLMRVMSREIRDDQQMMLLLSKKTADERIATFLINLSARFRARGFSANQFRLSMSRSEIGNHLGLAVETVSRVFTRFQQNQLVSAEGKEIHILAPIELCALAGGAMQS | soluble
MSEQFVTISQHVRNPQEAAALFGVHDIHLKRIEEELGVSIVTRGETVNVSGTPQQVQLVNELLRHLLIVIRKGAAVSERDVLYAIQLAKKGALDGLVQLYDEEITKNAKGKPIRVKTLGQRYYVAAIEQYDLTFGIGPAGTGKTYLAVVMAVKALKNGSVKRIILTRPAVEAGESLGFLPGDLKEKVDPYLRPLYDALNDVLGAEYTQRLIERGTIEIAPLAYMRGRTLEDAFVILDEAQNTTPAQMKMFLTRLGFGSKMVITGDISQVDLPKGVESGLSVAKRILASIGGIAFVFLEQSDVVRHPLVAKIIDAYDEAGL | not soluble
MSEQKIEVVGKLGSTYGIRGWLRLYSSTEKAESIFDYQPWFLKIKGQWQLIELESWRYHSNDLIVKLKGTEDREAAQLLTNAEIGVDLSVFPKLGEEDYYWHDLINCQVVNLENYTMGVVTELMETGSNDVLVVRANSKDAFGKQERLIPFLYKQVVKRVDLSTKTITVDWDAGFLEHHHHHH | soluble
MSEQYTTGVVVTGKVTGIQDYGAFVALDAETQGLVHISEITNGYVKDIHDFLKVGDTVEVKVLSIDEEHRKMSLSLKAAKRKQGRILIPNPSENGFNTLREKLTEWIEESELTK | not soluble
MSERDAIRAFSHMLETIFVRMRAEGTGSQTDAMQRWLDLYNVGSLPIDKKSYKALRLMDRETTDQQKEDATCAICLDNLQNNVDIPEDHVIKEELKIDPTTFGTTVIVMPCKHRFHYFCLTLWLEAQQTCPTCRQKVKTDKEVEEEERQRNLEELHDSMYG | not soluble
MSERVKVAILGSGNIGTDLMYKLLKNPGHMELVAVVGIDPKSEGLARARALGLEASHEGIAYILERPEIKIVFDATSAKAHVRHAKLLREAGKIAIDLTPAARGPYVVPPVNLKEHLDKDNVNLITCGGQATIPLVYAVHRVAPVLYAEMVSTVASRSAGPGTRQNIDEFTFTTARGLEAIGGAKKGKAIIILNPAEPPILMTNTVRCIPEDEGFDREAVVASVRAMEREVQAYVPGYRLKADPVFERLPTPWGERTVVSMLLEVEGAGDYLPKYAGNLDIMTASARRVGEVFAQHLLGKPVEEVVA | soluble
MSESFAELFEESLKTLNLQAGSIITGVIVDIDYQARWVTVHAGLKSEALIPLEQFYNDAGELSINVGDEVHVALDSVEDGFGETKLSREKAKRAECWIVLEAAFAAEEVVKGVINGKVKGGFTVDVNGIRAFLPGSLVDVRPVRDTTHLEGKELEFKVIKLDQKRNNVVVSRRSVLEAENSAEREALLESLQEGQQVKGIVKNLTDYGAFVDLGGVDGLLHITDMAWKRIKHPSEIVNVGDEIDVKVLKYDRERNRVSLGLKQLGEDPWVAIKARYPESTRVTARVTNLTDYGCFAELEEGVEGLVHVSEMDWTNKNIHPSKVVQVGDEVEVMVLDIDEERRRISLGIKQCKSNPWEDFSGQFNKGDKISGTIKSITDFGIFIGLDGGIDGLVHLSDISWNEVGEEAVRRFKKGDELDTVILSVDPERERISLGIKQLESDPFSEYVQENDKGAIVKGVVKEVDAKGAIITLANDIEATLKASEISRDRIEDARNVLKEGEEVEAKIISVDRKSRVIQLSIKSKDVEDEKEAIQSLRDKPAASDIAAGPTTLGDLLRAQMEKQN | soluble
MSETKERLCIYADFPYEFAVCAPRTDCPKREQCLRASAYDGVLARGLQKITVINPLIPTSEQGCKAFADNTPVLFAHGITHLYDELPHHAVQSLKHRLLTYFGKTTYYRIYRKERYITIQEQDYIRDSFVRAGFSSDLIRYDAMVYMYELQSAMVKSD | not soluble
MSETLIIRFNVGGTPMATLKTTFPVDSIFHKWFVSRTKASPFTSDRDGAYFVDRDPFSFGVVLNYFRLRKAGQLWEACLPKDPDRLAMLTQEADFFLLPQLRDQAICMLQLCSNKNDSNYINEMLAKSTSCPQGFDKKEEEDEEDF | not soluble
MSETQNSTSQKAMDEDNKAASQTMPNTQDKNYEDELTQVALALVEDVINYAVKIVEEERNPLKNIKWMTHGEFTVEKGLKQIDEYFSKCVSKKCWAHGVEFVERKDLIHSFLYIYYVHWSISTADLPVARISAGTYFTMKVSKTKPPDAPIVVSYVGDHQALVHRPGMVRFRENWQKNLTDAKYSFMESFPFLFNRVLEHHHHHH | soluble
MSEVTDLTVIEIKPEQAPVLYVAGGLDAYLEQIRQAVNEVPDLSTKKGRDRVASLAAQVSRSKTAIEKPGREYLKRLKEAVRPAEAEIKRFVDACDELRDATRRPLTEWEAEQERIKAEEAMNALHAEALEMNIKFDQELAAKFEADHEMALLMNKDFDRDREEQRRLAEQARREHEERIKREAAEQARRDAEAKHKAEIEAAARREAEEKARAELAERQRIEAEQRAEREKKETEERARREKEEAVAAERRRQEEAEAARLVEEQRKAEEEARRAADKEHRRTVNRRVYADLIAQGIPEEYAQKAVLAIAGGKVQDAHIKY | not soluble
MSEVVTDRLRMALEAMAQKDDDAAWEVIDGDDEINQLYLDLEDDCIDLLALQQPVAGDLRLIASSFKIITDLERIGDLAANLAEYTLDADRDMFPEVDVQAIGDRTIEMVTDAMAAYASADVEACYAIAERDDDIDERCRSASQTVIRDLIETEIDAATDDAEIEALMQDVSRLLLTVRDLERVGDHAVNISARTVYMVDNDDELIY | soluble

From the DeepSol protein solubility set
